Test: soluble on expression in E. coli; label from the status in PepcDB or PDB records

Sequence	soluble on expression in E. coli
MGSDKIHHHHHHMTLQFLGAAREVTGSCHLVTVAGKHLLLDCGLIQGGKADELRNHEPFVFDPQTIVAVVLSHAHIDHSGRLPLLVKAGFDGPIYTHKATAELCAIMLKDAAMLQVRDTERTNKKRAKHDLAPLEPLFTVEDAEQAISQFVSLEYGQVTRVIPHVDICLSDAGHILGSALVELWLGEGKSQKKIVFSGDLGRAGMPILQNPTLVDTADLVLMESTYGNRFHRSWTDTLAELKDIFAKTVNESQGNILLPAFSVGRAQELLYLFHLYAKEWDLGRWKICLDSPMAIEATRVYVNNYPLMDEDFKRFTRQHPGQHPLLSNVEFIQTTEESIALNEVHKGLIIIAGSGMCNGGRIRSHLEHNLWRSECDVIICGFQALGTPGRALVDGAKELTIHGNSVNVAAKLHTVGGLSAHADQAELLRWYRHFEEQPPLVLVHGEPEAQQGLVAVMNQDPKTKPKALAIATRGDMLDLTALPKLVWVTA	not soluble
MGSDKIHHHHHHMTNIEVEINDNYICVYERLNDDCIRLLHMYGKNPVCVVPDMLDGMRVTELAEYCFSFKSMPEKLKTELGIDDILRPDMTELCDDYIERVILPDGMKKIGRLCFYNCSRLTMLELPSDICDVDGDAFMNCTKLYMLVMRGSPKDKSCLKQILSQISTLVRVRWADSDGNAIAQACFFEYDQTYDEIGPAHIFKLNMNGEGFRARQAFMDRVFVWKQYDEIFSEAIAQESEDDLLDMAFYRLIYAYELSKEARQQFLEYIVNHKKRLSELIIRKRDSGLLQSFLELKDGEENFIADVLAVTDMLALAAQDEWSEGSVILHRFKKENLSVSRKRRFEF	not soluble
MGSDKIHHHHHHMTNMKQLCLICLAFICLFFLDSCGNKNTFRVEGSIAGYEDTAQVYLTKIIGSDLSVLDSVNPDRKGRFSFVAQADSTPSFYQIKLRKQHINFAARIGSEINIQVGRNSFSDYVIEDNQGPDNNNIRKIALLKEQADNRLDHLYRSYQENKLDASQYQDTIAKVIDEFKTTLRNDFIFQDPKSPASYFALFQQKDGLLYFNVYDPMDAKAFAAVATAYDTYYPTSSYTKSVRDLSLLGIAAMRRDRVAKDITTRKIEVKDIPETILIDRKGNEQPLSKVVETNDRVLIVFTSYQAEWSPSLVKEQRALYQRHCNNGFQIYEISVDKDLYFWQNATRTLPWITVNDSEGKAALSFNVRSLPTFFLIQDGELKRLQRLESL	not soluble
MGSDKIHHHHHHMTPLPSFRLSWPSALQRLCHAPAGKHMPAGAYQVHFPRLELVLSNRYHYSHEGCENASLSAQEALFIPAEHWTLPNWCANGEVLHILFDYARIGFSLVRSGPQGVISTHKESMVLAQRGSLNGMLDVLAGLCRDGADPEVLRLQGQALLALLQSLYDEARDSQWQQGGNLFRAICLYISEHLYAPLTREDVALRFSISATHLSRLFRQHLGLGFCEFLSHARLDLAKALLRQGQLPLSRVAARCGYADVNYFHRVFKQRFAMTPCAYRREFA	not soluble
MGSDKIHHHHHHMTPRELTCDETLAEMARVLTVEAAALTQMASEVGDPQLKAVEILEAMEGRVIVSGVGKSGHIGNKIAATLASTGTPAQFVHATEASHGDLGMVTPRDVCLVISNSGETSELADIVTYSRRFAIPLIAITRKADSTLATQADVVLLLPDAPEACGIGMAPTTSTTATLAMGDALAVALMKRRGFEREDFKVFHPGGKLGAQLMLVDGLMHTGEALPLVAPETPMTEALLIMTAKGFGLAGLVEGGRLTGIITDGDLRRNMDGLMARSAGEVATRGPKVIRRGSLASEALHDMNSRKISALFVLDNEDRVAGLLHIHDCLRAGLA	not soluble
MGSDKIHHHHHHMTPRPVSSVARLVEDNAQDFLRAVQAKLLTLAPQARGHFPTADDATHISIAEMVSALLEGTGEEGKVDDKTLEFFKEAALDARRFGLTPEMHSALGEAVRSELLSLCEDLPFENVLFAERAIAATTAVSVEAVREADEAHIPASYQAEIVEVEKRSRRFTVVRMQAETQLPYLPGQYLAATADFLPNTWRYLCPSIPTNEWGQVEFHIQSDADDIAGLLATTRLGDKWRLGPGRGDFGQSKISSGNDLLFIAHGTGLAPLRAYMFELMNQAAPPRLHFFVGADYPGELYELTGMWNFAAASPWLSVVPVSTHDKDAWWVQATEASQPPRGLHLHQTGSMAKIVTEAGAWADRDVLIAGPESWARDVRRAMIRRGTPAQQIEILGF	not soluble
MGSDKIHHHHHHMTRKFGEIAFTPEVQAAQEERGSRQTYDRYIANGPANDTITPNIAKFIAQLEGFYLGTVSSNGYPYIQFRGGSPGFLKVLDEKTLGFADFSGNLQYITVGNLSSNDKAFLFLMDYRHRQRIKIWGRAEYIEGESSLLEQVRVADYPAQVERAILFHVEATSENCPQHIPVRYSEREVKAMMAPLENRIAELEQQLSEQNSSSKTGKQLPSRD	not soluble
MGSDKIHHHHHHMTRNGIGIRTAQVRSERLTGQIHVYDGVGKGKSQAALGVVLRSIGLGINAPNNSNRVLLLRFLKGPERDYDEDGAIAALQRGFPHLIDQVRTGRAEFFGPEEITTFDRSEAGRGWDVAKGAIASGLYSVVVLDEINPVLDLGLLSVDEVVGTLKSKPQELEIIATGRGAPQKLLDIADLHSEMKPLHHPKATELLMKGIEIYTGAGKGKSTSALGKALQAIGRGINHPGSTRVLIMQWLKGGSGYTEDAAIAALRQSYPEVVDHQRCGRDAIVWRNSRQELDYVEAERGWEIAKVAIASGLYKTIILDELNPTVDLELLPVEPIVQALLRKPRDTEIIITGRCQNQPAYFDLASIHSEVYCHKHYANQGVELKRGVDF	not soluble
MGSDKIHHHHHHMTRYRFFHTADIHLGKTYRTSTGEAERYEDFFRMLGSIVSDAIAARVDFVLIAGDLFHTGQILPRTFARTIETLQPLKNAGIPCIAVEGNHDWIHRRDSISWMEALSQMGYIHLLRPSRTETGGYRFSPFDYEQGMGGHIEVNGVNIYGLGYIGTQAGAHVARICEAITTTNNILLFHVGVWTYSPVEIGNMKPEEALPLADVFDYVALGHGHKPYIIATPEGRAYAFNPGSPECVNFGEEKYDKGYYLVTVNDGVYTHEFRPTNPRPMLVTTIDLDGAGDAETALTRFRNVVAAKIASFSDDRQPLLEIKLTGRVGFHPFELGRERLRLALEEICNPLHVEIKNHLSLVTAGGGAESEKKSLAEIEREVLRELISAKSEYKGREDELVRLSLAIRDQVLKGETDGEELLGLLMREPA	not soluble
MGSDKIHHHHHHMTSADPPTLPETSVDVPPTSAEGLLKLITNEYDGLPRQLKRIASYMSQQSDRIMVDRISDIARECEVHPSAIVRFSQRFGFSGFSEMQTLFREAYTHKTTPVQNYQQRIRSMIVNKSQKASAGDLARECVNATLSGLERLSADLDDEEFEKAVDLVVNADNIYVVGVRRSFAVADYLVYNLQHTNKRIHLISGLGGSYREQMRSVRANDLVIAISFTPYGKETQHCLRIAQHHQAKTLIITDSNLSPLAKRANSVLLVNEGSSFAFRSLSATLCLCQALFIAVAYRLELKVDEIHEQVGFDD	not soluble
MGSDKIHHHHHHMTSIVFNGSYITKKNTGVGVVSKDLLYSLSANKITTLIPKDLDIKGDIYIPNNLSPGTGLKSHFRRLYWLQNSVPKLMNNLNAEYFLSPLLEAPLFSNIKSIVLAHDLIPIRYPSVSFLTLYYLIYIPLILKQSKLILCNSVSTANDLHRFYKVPMHKLFPIKLGFNNKKYYPIKKIRKKFFLIIGRHNPHKNLRRVIKAFAYSKINDYKLIFVGPFDKRHTPSLLKLIDKHNIRHLCVWKGWIDDDEKLSLLNECHALIIASLWEGFGLPALEAMACGTPVIASDRGALREVMGNYGYFINPFNIQSIACAMNAVINDKKCFENALQEGPSRAESFNWLDTARTIEKIIQEID	not soluble
MGSDKIHHHHHHMTSPRIISIEGPMGAGKTSLARQLAQSLGGRMILEAPAQNPFLSRFYQGPGAALATELQFFMQRREQWRHRDDSSWLISDHSARKDEIFTPLTLDAEEHHLFNELRMALDFHPAPADLMIFLDAPLAVLMKRIRARGDAYEQALAPDYLARVQAAYRAWQANYALPRMNVDSAQVDFVHDPRHTERLIDAVRHRLKDAEEQDA	not soluble
MGSDKIHHHHHHMTSPSPDQVIRQEILALSAYHVPPAKDMVKLDAMENPYRLPPFLCEEISRIAADTSINRYPDPHAAALKEVLSTTLSVPAGMEIMLGNGSDEIIQIIMLAAAKPEAKLLTIEPGFAMFKMIATFANMQYIGIPLKPDFSLDIDRMLAAIERHQPSVIFLAYPNNPSGNLFDTSALEKIIEISPGLVVIDEAYHPFAGKSFIGRLADYPNLLVMRTLSKLGLAGLRLGLLAGRPEWLSHLEKLRLPYNVNVITQLVATKIMQHYDVLQQQADAIRQTRTRLRTFLENLNGIEVFPSNANFILFRLDGASQIFRLLQQHGILVKNLDNSHPLLKNCLRVTVGTPEENDRFCNTLQDLIAGN	not soluble
